Source: PMC4432866 (Nature communications, 2014)
Read-outs that look alike come from different tables or passages of the source. Ends that are not written are not given here.

B2: talin-F3 (His-tagged, pull-down) (domain or fragment, mouse, UniProt P26039 309-405, looked up)
chain: GVSFFLVKEKMKGKNKLVPRLLGITKECVMRVDEKTKEVIQEWSLTNIKRWAASPKSFTLDFGDYQDGYYSVQTTEGEQIAQLIAGYIDIILKKKKS

Tests used:
[1] = target: talin-F3 (mouse, UniProt P26039 309-405); assay: NMR titration
[2] = target: T1, talin-F2F3 (mouse, UniProt P26039 206-405); assay: NMR titration
[3] = target: B2; assay: pull-down
[4] = target: T1, talin-F2F3; assay: NMR titration; remark: listed apart in the source
[5] = target: talin-R9 (pull-down competitor) (mouse, UniProt P26039 1654-1848); assay: pull-down

DIDQMFSTLLGEMDLLTQSLGVDT (peptide, UniProt Q7Z5R6 7-30, looked up) [RIAM-N]
binding result [1]: binds | binding result [2]: binds

KKKITIHDRKEFAKFEEERARAKWDTANNPLYKEATSTFTNITYRGT (peptide, UniProt P05106 742-788, looked up) [integrin β3 CT (716–762) L717K/L718K]
binding result [1]: binds

KKKITIHDRKEFAKFEEERARAKWDTANNPLYKEATSTFTNITYRGT (peptide, UniProt P05106 742-788, looked up, also: His-tagged) [integrin β3 CT (716–762) L717K/L718K (His-tagged, pull-down)]
binding result [3]: binds

B1: talin-R9 (domain or fragment, mouse, UniProt P26039 1654-1848, looked up)
chain: KAPGQLECETAIAALNSCLRDLDQASLAAVSQQLAPREGISQEALHTQMLTAVQEISHLIEPLASAARAEASQLGHKVSQMAQYFEPLTLAAVGAASKTLSHPQQMALLDQTKTLAESALQLLYTAKEAGGNPKQAAHTQEALEEAVQMMTEAVEDLTTTLNEAASAAGVVGGMVDSITQAINQLDEGPMGDPEG
binding result [4]: binds

B2
binding result [5]: binds
